# Experimental data from patent US20030148958A1 (PROCTER AND GAMBLE, published 2003).
# T1: CRF2R
# T1 sequence (Q13324 whole entry, species assumed, looked up): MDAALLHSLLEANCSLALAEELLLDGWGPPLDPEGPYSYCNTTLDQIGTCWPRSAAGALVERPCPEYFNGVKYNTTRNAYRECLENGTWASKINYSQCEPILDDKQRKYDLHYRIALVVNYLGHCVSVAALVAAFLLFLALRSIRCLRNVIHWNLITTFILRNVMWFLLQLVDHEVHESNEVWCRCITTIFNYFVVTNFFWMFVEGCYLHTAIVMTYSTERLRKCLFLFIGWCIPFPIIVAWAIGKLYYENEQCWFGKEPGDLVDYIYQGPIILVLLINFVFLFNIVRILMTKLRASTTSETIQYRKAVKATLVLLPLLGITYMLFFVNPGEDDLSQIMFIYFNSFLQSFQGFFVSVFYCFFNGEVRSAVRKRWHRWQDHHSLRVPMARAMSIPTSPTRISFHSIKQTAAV
# Target: CRF1R
# Test: cell-based or functional assay
# Wherever CRF1R Emax % is given: reference of the scale not given here.
# Wherever CRF2R Emax % is given: reference of the scale not given here.
CRF1R EC50,CRF1R Emax %,Binder
226 nM,100%,ZGPPISIDLPTYLLRILIEIEKQEKEKQQAANNRLLLDTI (not fully specified; C-terminal amide) [SEQ ID NO 252]
708 nM,6%,ZGPPISIDVPIGLLRKMIEIEKQEKEKQQAANNRLLLDTI (not fully specified; C-terminal amide) [SEQ ID NO 254]
1000 nM,42%,ZGPPISIDVPTYLLRKMIEIEKQEKEKQQAANNRLLLDTI (C-terminal amide) [SEQ ID NO 253]
33.3 nM,84%,ZGPPISIDLPFQLLRILIEIEKQEKEKQQAANNRLLLDTI (not fully specified; C-terminal amide) [SEQ ID NO 255]

# More lines, now with the values behind:
Binder,CRF1R EC50,CRF1R Emax %
ZGPPISIDLPLYLLRKMIEIEKQEKEKQQATTNARLLDTV (C-terminal amide) [SEQ ID NO 242],358 nM,99%
ZGPPISIDLPLYLLRKMIEIEKQEKEKQQAANNALLLATI (C-terminal amide) [SEQ ID NO 245],381 nM,100%
ZGPPISIDLPLQLLRKMIEIEKQEKEKQQAANNALLLDTI (not fully specified; C-terminal amide) [SEQ ID NO 248],1000 nM,32%
ZGPPISIDLPLYLLRKMIEIEKQEKEKQQAANNALLLDTI (C-terminal amide) [SEQ ID NO 244],300 nM,100%
ZGPPISIDLPLQLLEKMIEIEKQEKEKQQATTNARLLDRV (C-terminal amide) [SEQ ID NO 247],1000 nM,34%
ZGPPISIDLPLYLLRKMIEIEKQEKEKQQATTNARLLDRV (C-terminal amide) [SEQ ID NO 243],440 nM,96%
ZGPPISIDLPLQLLRKMIEIEKQEKEKQQATTNARLLDTV (C-terminal amide) [SEQ ID NO 246],1000 nM,33%
ZGPPISIDLPLQLLEKMIEIEKQEKEKQQAANNALLLATI (not fully specified; C-terminal amide) [SEQ ID NO 249],1000 nM,50%
ZGPPISIDLPFQLLRKMIEIEKQEKEKQQAANNRLLLATI (not fully specified; C-terminal amide) [SEQ ID NO 250],138 nM,99%
ZGPPISIDLPFQLLRKMIEIEKQEKEKQQAANNALLLDTI (C-terminal amide) [SEQ ID NO 251],926 nM,80%

# Target: T1, CRF2R
# Test: cell-based or functional assay
CRF2R EC50,CRF2R Emax %,Binder
22.3 nM,100%,ZGPPISIDLPTYLLRILIEIEKQEKEKQQAANNRLLLDTI (not fully specified; C-terminal amide) [SEQ ID NO 252]
100 nM,36%,ZGPPISIDVPIGLLRKMIEIEKQEKEKQQAANNRLLLDTI (not fully specified; C-terminal amide) [SEQ ID NO 254]
41.8 nM,86%,ZGPPISIDVPTYLLRKMIEIEKQEKEKQQAANNRLLLDTI (C-terminal amide) [SEQ ID NO 253]
7 nM,100%,ZGPPISIDLPFQLLRILIEIEKQEKEKQQAANNRLLLDTI (not fully specified; C-terminal amide) [SEQ ID NO 255]

# The next lines start with the binder.
Binder,CRF2R EC50,CRF2R Emax %
ZGPPISIDLPLYLLRKMIEIEKQEKEKQQATTNARLLDTV (C-terminal amide) [SEQ ID NO 242],29 nM,94%
ZGPPISIDLPLYLLRKMIEIEKQEKEKQQAANNALLLATI (C-terminal amide) [SEQ ID NO 245],7.5 nM,93%
ZGPPISIDLPLQLLRKMIEIEKQEKEKQQAANNALLLDTI (not fully specified; C-terminal amide) [SEQ ID NO 248],19.6 nM,98%
ZGPPISIDLPLYLLRKMIEIEKQEKEKQQAANNALLLDTI (C-terminal amide) [SEQ ID NO 244],8.8 nM,98%
ZGPPISIDLPLQLLEKMIEIEKQEKEKQQATTNARLLDRV (C-terminal amide) [SEQ ID NO 247],18.8 nM,100%
ZGPPISIDLPLYLLRKMIEIEKQEKEKQQATTNARLLDRV (C-terminal amide) [SEQ ID NO 243],16.8 nM,100%
ZGPPISIDLPLQLLRKMIEIEKQEKEKQQATTNARLLDTV (C-terminal amide) [SEQ ID NO 246],38.8 nM,100%
ZGPPISIDLPLQLLEKMIEIEKQEKEKQQAANNALLLATI (not fully specified; C-terminal amide) [SEQ ID NO 249],12.2 nM,92%
ZGPPISIDLPFQLLRKMIEIEKQEKEKQQAANNRLLLATI (not fully specified; C-terminal amide) [SEQ ID NO 250],19.7 nM,100%
ZGPPISIDLPFQLLRKMIEIEKQEKEKQQAANNALLLDTI (C-terminal amide) [SEQ ID NO 251],11.8 nM,100%
